Our source for the protein production values is a protein production outcome set (Wang et al. 2014).

The series can be described thus: label from the status in PepcDB records.
As for “MALWMDAGATPTTEKEKADLEAISALKESTAIEFKEEGNECVRKGKKHYSEAIDCYTKAISQGVLSDSETSILFSNRSHVNLLLGNYRRALTDAEESMRLSPHNVKAVYRAAKASMSLDLLNEAKSYCEKGIENDPSNEDMKKLLKLVNSKKQEKEQHEAQASQAVVEAKACLSAIENRGVKIGKAMYRELTGLKKPMLDKNNILHWPVLLLYAEAMTSDFVEDFCETDMFATHLDMMFSEDSPPLPWDKNNEYSRDVIELYYEASSGTPLPRSRVLQYLLEGTKGSQAETTGEEDTSATKTPSYLKGSSGMVKVNERRTLHDVLKEPKFVIPEIPVFYIVSKRSKFYKDFTAGKWTPPN”, the protein production entry was “failed”.

Consider “MDESVKSLMLPPPPPLLPPSQGYGSRKIDGDSITNKQIKKFWRQKQIIEEDHLYSAIKAAARVRARNLSDEDYKRFEESLDMEDLETEDHQGLKDWWTKSKYAYLNQPALGSADSLKRKRFSTYTPNCFSFKPCNPLYATSLNVF”, for which the protein production entry is listed as “failed”.

“MKLNIKISDKLKLFFKIAFVSVVILFIVREFTSVFKNFNSEYFFMYRNKLDFLNLLIIAALGIISYIPLSFYDFILKRKVGIRLKNRKLYKYSWIASSIASLLGFGGATSLAFKQYFYGDYVDDKKKLLKEIGKIVALNLTGLSIVCCTYMGIRISSWNNLGIIKYAIGIIALYAPGFIIYSAYKYSKTKDKLEFFSTLGIIFISFLEWLTTIILIYATLRITGASISVLTFLPIYIEAAVVGMISMIPGGIGTFDLTFMTGLEVLGIPIEQTLLVIILYRISYYIVPALIGVLLFVHDFGGKINKKFNGLPYEIVSKVAYKIVVSLVFISGAIIVLSNIAPQYLLKIKLLKEILGKQVLGLSIGMSVVLGFLIMLAALMLKYRAKSIYKASMVLFILGIILSLTKGINPYELVFLIIVAYLLYLSKRMFYRDSFVVSCKNTLIDSGILIASFSIYFFILITFGTHLKYVGIVRKMPYKMAYKFGFIAFALVTVIYVAIYFLNIRRKIPVKTFDQCSEYVEKIIEEYKGDSLTHLVFLKDKYIYLNEDKDLFIQYEVYGDKLFVLGNPVGNNENLFREIEKFCEYADNYGYTPVFYQVNDEMISYLHSNGYDFMKIGEEAKVDVKEFKVVGNKMKSLKTSRSKVTKEGYTFHMVEPPFSKEFLDSLREISDEWLDGRKEKGFSVGFFDEDYLNKAPIAILKDREGEIKAFANIMYMYDNESFSVDLMRFSKNTPRGVMDFMFINLIEYGKENGYEIFNMGMAPLANVGLSKYAFWNEKLALQFYENGQALYSFKGLRRFKEKFSHNWEYKYIAYRRNTSILITVIQAAIVCSRNRNVDESIVVRNLKSLIK”: the protein production entry was “failed”.

Turning to “MSLKIIDFRLRPPAMGFLNARIYTRPDIRNRFTRQLGFEPAPSAEEKSLELMFEEMAAAGIEQGVCVGRNSSVLGSVSNADVAAVAKAYPDKFHPVGSIEAATRKEAMAQMQEILDLGIRIVNLEPGVWATPMHVDDRRLYPLYAFCEDNGIPVIMMTGGNAGPDITYTNPEHIDRVLGDFPDLTVVSSHGNWPWVQEIIHVAFRRPNLYLSPDMYLYNLPGHADFIQAANSFLADRMLFGTAYPMCPLKEYTEWFLTLPIKPDAMEKILHGNAERLLAQAGREGHHHHHH”, the protein production result is reported as “not failed”.

Regarding “MYFLYVGIFGALGGMCRYAMNLWLGGGDFPSATLAVNLIGCFLLAFIMPFLAEKSRISLVLLNGIGTGFIGAFTTFSAFSVDTIELLQQGEVVLAISYILVSLIGGLVMVKFGRRFSNKLLRRGAHHVD”, the protein production entry is given as “failed”.

As for “MIITLFVMVSGNKVKYEGSGKSGLWMSNLEKSDKTSIGPNYFLNLYWQGSKKEEKWTVVERITLYVDGEKYQDDNVDEYDLSEYTGDEMPGGGRMEDHISTFDYMPEDEVIGHDVLVKVEWRTGQKKQTEAIKLHKKPWYKKLEHHHHHH”, the protein production entry is on record as “failed”.

In the case of “SAESSKLSATTVEAAPAMIKAKDVISPSEKEESDQTEITKVSVLKNLDEKEMIKEFADRLQRLEAKVDLLVTKADLLAIKADIQELLISAKGEKVPAMKTSAKASSESDDSYMDTSSEDESSSAEEPVNKPAASAAKPATKDSLFSAGFKPAAKDSLFSAGFKPDSLFSAGFEPAAKDSLFSAGFKPGSLFSAGFEPAAKDSLFSAGFKPDSLFSVGVKPAAKDSLFSVGVNGRSFSVTGFDASLPVDDIKSALSKYFSSFGEITRVFVPPSHGTGGSLGYAYIDLKEGAEKALELGRHDVGGWDLVVGKAEPIRSGSTWPFPGRCGNQGRCTFC”, the protein production result is “failed”.

Consider “MTIKQTDNINDDDLVYSNATDLPVGVKKSPKMSPTARVGLLVFGVIAAVGWGAIAFSRGETINSVWLVLAAVGSYIIAFSFYARLIEYKVVKPKDQRATPAEYVNDGKDYVPTDRRVLFGHHFAAIAGAGPLVGPVMAAQMGYLPGTLWIILGVIFAGAVQDYLVLWVSTRRRGRSLGQMVRDEMGTVGGAAGILATISIMIIIIAVLALIVVNALADSPWGVFSITMTIPIALFMGVYLRYLRPGRVTEVSIIGVALLLLAIVAGGWVADTSWGVEWFTWSKTTLALALIGYGIMAAILPVWLLLAPRDYLSTFMKIGVIGLLAVGILFARPEVQMPSVTSFALEGNGPVFSGSLFPFLFITIACGALSGFHALISSGTTPKLVEKESQMRMLGYGGMLMESFVAMMALITAVILDRHLYFSMNAPLALTGGDPATAAEWVNSIGLTGADITPEQLSEAAESVGESTVISRTGGAPTLAFGMSEILSGFIGGAGMKAFWYHFAIMFEALFILTTVDAGTRVARFMMTDTLGNVPGLRRFKDPSWTVGNWISTVFVCALWGAILLMGVTDPLGGINVLFPLFGIANQLLAAIALALVLVVVVKKGLYKWAWIPAVPLAWDLIVTMTASWQKIFHSDPAIGYWAQNANFRDAKSQGLTEFGAAKSPEAIDAVIRNTMIQGILSILFAVLVLVVVGAAIAVCIKSIRARAAGTPLETTEEPDTESEFFAPTGFLASSRDKEVQAMWDERYPGGAPVSSGGH”, for which the protein production entry was “not failed”.

As for “MGSPNSLSRRGFCLCCVGGATFAASAGWLTPREAYAEARGLVSLIKDSAAISPITASRLRNNISVLEGSGGNIAVLTGSDGKLLVDAGIRVSRAQLTNALAGLGTDPVTHLVNTHWHFDHADGNEWLHSAGAKIIAHENTRKHLLGVQRVEDWDYNFLPLGPGGIPSEVFAGSHKLGLNGASISLKYFGPAHTDSDVSVTFVEANIVHVGDTFWNGIYPFIDYSTGGSIDGMIAACDANLAATDKDTIIIPGHGKPVSNKAELQAFRDMLVAIRDNVARLKAQGRTWDETVAAKPTAAFDAQWGQFVIDPGFFTRLVYQGV”, the protein production result is on record as “failed”.

For the sequence “MAAAGEEYSSDKIEERSLAAIDSMIDPDISGPMRHIVVKAIHAAGDFAIAPLIRYSDGFFKSMLAKLKEGCTIICDSEMVRAGIYSRPVLERNRVVCYLNDVRSKEMADVNGITRSAAGIRIAMQDHRNSVIVIGNAPTALLEAMRMIEENGWYDIPIVGIPVGFINASKAKEGLVSSHIEYISVEGHRGGSPIAASIVNGFGRFLA”, the protein production entry is reported as “not failed”.

For “MAGDQELELRFDVPLYTLAEASRYLVVPRATLATWADGYERRPANAPAVQGQPIITALPHPTGSHARLPFVGIAEAYVLNAFRRAGVPMQRIRPSLDWLIKNVGPHALASQDLCTDGAEVLWRFAERSGEGSPDDLVVRGLIVPRSGQYVFKEIVEHYLQQISFADDNLASMIRLPQYGDANVVLDPRRGYGQPVFDGSGVRVADVLGPLRAGATFQAVADDYGVTPDQLRDALDAIAA”, the protein production result was “not failed”.

For “MEILQFIGYGNMAQAILEGAHEILSKRFILEITGRNPEKIAPFLQEKNIQAQIVPYKDAIDIHQKFVFLLFKPYNLKDFNYQGQAKSVLSALAGVGFKALSDAIDSLHYLKCMPNIASKFALSSTAVCEKSPMPLISQKALSVIESFGNCVRVGHEELVDASVATNGSALAFLSLVANSLKDAGIREGLNARGSLELVKMSFKGFAKLLEKERPEMIIEQICTPKGATIEGLSVLEKKGVRGAFIEACHKSVKKMRL”, the protein production entry is reported as “failed”.

On to “MHLVNIRNQPLGNTIIQVLGVMAFGLFAAVVYMKTSNLIFAIVVHAMNDFMAIMASSGSLSSQQTNPLTILYEWFIFGTLAFALFYTGWTQREKFIAAIQERSPQLTARKLPTLAQSSTFRRIFALVSMIYGILILPTMLLFSKLSTSAGSRAEIANKALPIYLLFLLGIALYIFLIVFFDFHLGNLCWLLLPYIGGPVFALIALVNGARPLTEKTNQSKTINNKTPN”, for which the protein production entry is given as “failed”.

Regarding “SIDLRLQYLATRELRNAIAEQDAKAGSLVIMDVKTGEVLAMVNQPTYNPNNRRSMFPAAMRNRAIIDVFEPGSTVKPISMSAALQSGRWKPTDKVEVYPGSLQIGRYTIKDVSRSEGPILDLTGILINSSNVGMSKIAFDIGGEAIYRVMSQVGLGQYTGLGFPGERVGNLPNHREWRKAETATLSYGYGVSVTALQLVHAYAALANDGKMVPLSIIKVDKTPEAVQAIPKEVAETVQGMLQQVIEAPRGVFRAQVPFYHVAGKSGTARKATVGAKGYTENAYRSLFAGFGPMSDPRYAIVVVIDEPRKGGYFGGLVSAPVFSNVMSGTLRLMNVPPDNLPPPAPAPAVPSQVNAAAAKGGRG”, the protein production result was “failed”.

For the sequence “MNLHTKTWVQRLPVPIDVAWDFFSQPGNLARITPPEMMLKAEGGNAGTAIYEGMKLNFVLYPFMMIPVRWTTEIMKVSKPDFFEDRQLSGPYEQWYHRHLFRDIEGGTEMTDIVEYALPFDLFGEVVEALIVGPRLDEVFEYRRCRVAEILGLEHHHHHH”, the protein production result is “failed”.

For “MSLIILTRDDEPRIFTPDSDAASPALHSTSPLPDPASASPLHREEKILPKVCNIVSCLSFSLPASPTDSGLASPTIITREGQQFWAKCLIWKYQLYLHGLHKKSDGRRDKQISASPST”, the protein production result was “failed”.

As to “MGDSPMNKNAKPDLAGTAALALDKGDPLLTPASVSQRDDARSQQPLGREALDVFVAWSIIGIFLIMSMAVIHELSMILMPVVMAVVVGMILGISAEKLASYGIPGAGVALILSTLVAAVIFFVVNSLIDPVSQLATEGPALIERSIDRFLPYVQNLRWLNISAATFSMGSMSMESLISRSGEIITLLGANVTPAIVQGLIFLAALLMFLYSRLRLRKALIMVFPARHQRLRTIRIIGSVEKVLGTYFATASLIYAALGVTMIVIAYVGGLSMPLLWGLFAFLSSFVPFLGITLMTISLTIAGIIAHDNMILALLPAGVFFTIHLLMENLAFPAVVGRNMEINPFLVFVMIIFWTWMWGAAGAMLALPLSLIAMTVTRELFPSRRVVPKLPD”, the protein production entry was “failed”.

Take “MKLERFYRDTILLTMSNFATGILKFIFSVILSEKLGAEGVGLYQLIMPVYDLFCCLVCGGLNIAVSRKVAILSGKNDYSNVNSLIKISSLFCFIWSSLVAVILFFNSRFISNSFIKDMRSLYSLELICPALIFVTISAILKGYFYGISKAKVPAYIDILEKASRVGIVIAIINIFMLKSISKTVTAVYGVLSLGEFISLIALYIAFLIYRRNLRPVYSDRESSGQLIFDVFSVSIPLCINSFVSSLLAAASTLILPVRLVHAGFLHSEALSLIGKFSGMALIVTSFPVVIIVAMSTVLIPEISQNLNKRDYYSIEKRVTQVLKISFFLGTITMIIALSIPNLLGKLFFSRNDLGNYIAASALSVPVDYTSFATFSILSGLGKQNKLLINSLIVSIEQLILLYVLTGIRFINIYGYAITLFVTCLTAYILNMKEIRKVCYIRFSFVDMFIDTLLCILVYLILSILNNIVPNRFILPKTLFIIILGFVLFTFAITKIKDKLK”: the protein production result is given as “failed”.

“MATAGSSYSVSTDHQVSSPLVNLGNVAGVCIMSNAWKVEQEPSLINFISAFLSANSFRLNFVSIPPDLIFNCGGVSIAFVFVTKWDFSNVASIFSRVKRLKGQFAQLYVVATLSTKEQSDSFMRSYFQYEMEFGKPAFVQVTDAEMGFEKIVKIAHSRGVCKQQKVASKLKVERKRTVQDTNIFIRFVTSIPNINKHDANTVMFTYEQVQVLYQAIGSIEAIAKASKEDILANTDLSSKKADTLTRFFQDPEFYLSPKFN”: the protein production result is listed as “failed”.

For “MASKSGSGGLREPPNEQAVLNMYEGKRSELSQIYSNITDLEMQVSEHSLVINAIQPLDQSRKCFRMIGGVLVERTIKEVLPAVQRNKDGLEEVVRKLYETLEKKKKDLTEFEAKYKIRITKQEDNKEGGNKKEGNAQGVLVGAASSSQ”, the protein production entry is given as “failed”.
